Results on 41 sequences are retold here after the nanobody polyreactivity screen of Harvey et al. (2022).

The data set is described as follows: yeast display, Sf9 membrane polyspecificity reagent, FACS + sequencing; frameworks hold sequencing errors. In outline:
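Nanobodies came from a synthetic yeast display library in Saccharomyces cerevisiae BJ5465, induced with galactose for 36–48 hours and stained for 1 hour at 4 °C with 10% biotinylated, detergent-solubilized Sf9 membrane reagent. Cells were enriched on streptavidin microbeads and then FACS-sorted, with low and high (top ~1%) gates set on anti-HA fluorescence for expression and streptavidin fluorescence for reagent binding. Each polyreactivity label reflects the gate a clone came from. Genes were amplified by colony PCR, sequenced by MiSeq 2 × 250 and filtered by CDR length.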
In the case of “QVQLEDSGGGLVQAGGSLRLSCAASGFTFGVYAMGWYRQAPGKQRELVAAITSGGGRTYADSVKWRFTISRDNAKNTVYLQMNSLKPEDTAVYYCAAEGVPLRVVWDYSYWDYDYDYWGQGTQVTVSS”, the “polyreactivity (PSR sort gate)” value was “low polyreactivity”.
For “QVQLEDSGGGLVQAGGSLRLSCAASGRIFTRYAMGWYRQAPGKERELVAVITRSGGSTYYADSVKGRFTISRDNAKNTVYLQMNSLKPEDTAVYYCAARYYWSVYADQGDYWGQGTQVTVSS” the value was “low polyreactivity”; for “QVQLEDSGGGLVQAGGSLRLSCAASGSTISYYTMGWYRQAPGKERELVAAISSGGSTYADSVKGRFTISRDNAKNTVYLQMNSLKPDDTAVYYCAVDGFDYGPSQALDYWGPGTQVTVSS”, “low polyreactivity”; for “QVQLEESAGGLVQAGGSLRLSCAASGSIFAYYAMGWYRQAPGKERELVAVIRSGGSTYYADSVKGRFTISRDNAKNTVYFQMNSLKPEDTAVYYCAARSYRPTRGDYWGQGTQVTVSS”, “high polyreactivity”.
For “QVQLEESCGGLVQAGGSLRLSCAAYGRIFGNYAMGWYRQATGKETELVAAITRGSTYYADSVKGRFTISRDNSKNTVYLQMNSLKPEDTAFYYCNARPRVPGVLYLYDYWGQGTQVTVSS” the value was “high polyreactivity”.
Under “QVQLEESGAGLVQAGGSLRLCCAASGFTIGYNVMGWYRQAPGKERELVATISWNGARTYYADSVKGRFTISRDNAKNTVYLQMNSLKPEDTAVYYCAARRYYRGEYDYWGQGTKVTVSS” stands “low polyreactivity”; under “QVQLEESGGALVQAGGSLRLSCAASGFTFYRNALGWNRQAPGQERELVGAITRGGSTTYADSVKGRFTISRDNAKNTVYLQMNRMKPEDTAVYYCAAPKYIWYRDLNYWGQGTQVTVSS”, “high polyreactivity”.
As for “QVQLEESGGCLVQAGGSLRLSCAASGFTIRDYTMGWSRQAPGKERELVAPISRSGGSTYYADSVKGRFTISRDNATNTVYLQMYSLKPEDTAVYYFAALWHAVFYADYDYWGQGTQVSVSS”, the “polyreactivity (PSR sort gate)” value is “high polyreactivity”.
For the sequence “QVQLEESGGCLVQAGGSLRLSCAASGITFVLYAMGWYRQAPGTERELVAAINIDGNTNYADSVKGRFTISRDNAKNTVYLQMNSLKPEDTAVYYCAATFVPAQSRYTCSKYDYWGQGTQVTVSS”, the “polyreactivity (PSR sort gate)” value is given as “low polyreactivity”.
Turning to “QVQLEESGGCLVQAGGSLRLSCAASGITFYVYAMGWSRQAPGKERELVAAISSSGGSTYYADSVTGRFTISRDNAKNTGALQMNSLKPEDTAVYYCPADKCFYYGRKYGKYDYWGQGTQVTVSS”, the “polyreactivity (PSR sort gate)” value is “high polyreactivity”.
Consider “QVQLEESGGGIVQAGGSLRLSCAASGITFRFYAMGWYRPAPGKERELVAAITRSGSSTYYADSVKGRFTISRDNAKNTVYLQMNSLKPEDTAVYYCATDPYWNRPYVKYDYWGQGTLVTVSS”, for which the “polyreactivity (PSR sort gate)” value is given as “high polyreactivity”.
For “QVQLEESGGGIVQAGGSLRLSCAASGRIFGYYAMGWYRQAPGKERELVASIRRGTRTNYADSVKGRFTISRDNAKNTVYLQMNSLKPEDTAVYYCAATRFQFTTTPWYDYWGQGTQVTVSS” the value was “high polyreactivity”.
“QVQLEESGGGIVQAGGSLRLSCAASGRTFYGYAMGWYRQAPGKEREFVAAINERGTSTYYADSVKGRFTISRDNAKNTVYLQMNSLKPEDTAVYYCAARYLRTQYQDGTRSRIQLDYWGQGTQVTVSS”: the “polyreactivity (PSR sort gate)” value is “high polyreactivity”.
For “QVQLEESGGGIVQAGGSLRLSCAASGSIFGGYAMGWYRQAPGKEREFFAAISWTSGRTTYADSVKGRFTISRDYAKNTVYLQMNSLKPEDTAVYNCAKRYGIWYPSYADRGSDYRYGYWGQGTQVTVSS” the value was “high polyreactivity”.
On to “QVQLEESGGGIVQAGGSLRLSSAASGRIYTPNAMGSYRQAPGKERELVAAITWSGGSTYYADSVKGRFTISRDNAKNTVYLQMNRLKPEDTAVYYCAVRYSRNLMYYWGQATQVTVSS”, for which the “polyreactivity (PSR sort gate)” value is listed as “high polyreactivity”.
For “QVQLEESGGGIVQAGRSLRLSCAASGITFDANTMGWYRQAPGKERELVAAITGGGSTNYADSVKGRFTISRDNAKNTVYLHMNSPKPEDTAVYYCPADLIYKYNYWGQGTQVTVSS”, the “polyreactivity (PSR sort gate)” value was “low polyreactivity”.
For the sequence “QVQLEESGGGLDQAGGSLRLSCAASGIIFGYYAMGWYIQAPGKQSEFVAAINYSGVSTYYADSVKGRFTISLDNAKNTVYLEMHSLKPEDTAVYYCAAGPYAGVDPGYYYYWGKGTQVTVSS”, the “polyreactivity (PSR sort gate)” value is listed as “low polyreactivity”.
For “QVQLEESGGGLDQAGGSLRLSCAASGSTYAYAMGWYRQAPRKERELVAAITRSGGSTYYADSVKGRFTISRDNAKNTVYLQMNSLKPEDTAVYYCRGKSTTWRGSQMDYWGQGTQVTVSS”, the “polyreactivity (PSR sort gate)” value is listed as “high polyreactivity”.
Under “QVQLEESGGGLDQAGVSLRLSCAASGRTFPSNTMGWYRQAPGKERELVAAISWRGGSTYYADSVKGRFTITRDNAKKTVYLQMNSLKPEDTAVYYCNTLTKAYRSKSYYEWGHGTQVTVSS” stands “high polyreactivity”.
For “QVQLEESGGGLFQAGGSLRLSCAASGRIFYGYAMGWSRQAPGKEMELVAAISSSGGSTYYADSVKGRFTISRDNAKNTVYLQRNSLKPEDTAVYYCNAKRYRPGYWYDYWGQGTQVTVSS”, the “polyreactivity (PSR sort gate)” value is listed as “high polyreactivity”.
For “QVQLEESGGGLFQAGGSLRLSCAASGSTIFSNAMGWYRQAPGKAREVVAAITSDGGTYYADSVKGRFTISRDNAKKTVYLQMNSLKPEDTAVYYCNVGSFTGHSYGFGYWGQGTQVTVSS” the value was “low polyreactivity”; for “QVQLEESGGGLVHAGGSLRLSCAASGSTFRPYAMGWYRQAPGKERELVAAIRKIGGRTYYADSVKGRFTISRDNAKNTVYLQMNSLKPEDTAVYYCNKRIGGGVHAYNYWGQGTQVTVSS”, “low polyreactivity”.
For “QVQLEESGGGLVKEGGSLRLSCAASGSIFPINAMGWYRQAPGKERELVAAINGSGSTKYADSVKGRFTISRDNAKNTVYLQMNSLKPEDTAVYYCSTRGLRWAKYGYWGQVTQVTVSS” the value was “high polyreactivity”.
For “QVQLEESGGGLVLAGGSLRLSCAAAGSTFVTNDMGWYRQAPGKERELGAAISVGGRTSYADSVKGRFTISRDNAKNTVYLQMNSLKPEESAVDYCAAQYSYTYWGQGTQVTVSS” the value was “low polyreactivity”; for “QVQLEESGGGLVQAGASLRLSCAASGFIFTSYAMGWYRQAPGKEREFVAASSRRGGSTYYADSVKGRFTISRDNAKNTVYLQMNILKPEYTAVYYCAADPKQHAGYEYWGQGTQVTVSS”, “high polyreactivity”.
With “QVQLEESGGGLVQAGGRLRLSCAASGFIFWGNAMGWYRQAPGKERELVAGIRSLGGTTSYEDSVKGRFTISRDNAKNSVYLQINSLKPEDTAVYSCAAGYVAEFDYWGQVTQVTVSS”, the “polyreactivity (PSR sort gate)” value was “low polyreactivity”.
As to “QVQLEESGGGLVQAGGRLRLSCAASGIISAHYAMGWYRQAPGKERELVAAISSSGGSTYYADSVKGRFTISRDNAKNTVYLQMNSLKPEDTAVYYCNAEFYWGYDYWGQGTQVTVSS”, the “polyreactivity (PSR sort gate)” value is recorded as “low polyreactivity”.
Under “QVQLEESGGGLVQAGGSHRLSCAASGFIFDRNAMGWYRQAPGKERELVAAITRSGGNTYYADSVKGRFTISRDNAKNTVYLQMNSLKPEDTAVYYCAKDVIQWSVSASYRFGYWGQGTQVTVSS” stands “high polyreactivity”.
Under “QVQLEESGGGLVQAGGSLPLSCAASGFIFGRYAMGWYRQAPGKEREFVASISWSGGSTYYADSVKGRFTISRDNAKNTVYLQMNSLKPEDTAVYYCAAYVRKDRSRGLYGYWGQGTQVTVSS” stands “high polyreactivity”.
For “QVQLEESGGGLVQAGGSLRFSCAASGITFDQNAMGWYRQAPGKEREFVAAISVSGGRTYYADSVKGPFTISRDNAKNSVYLQLNSLKPDDSAVYYCNADYAFYYPLEPLDVGYDYWGQGTQVTVSS” the value was “high polyreactivity”.
With “QVQLEESGGGLVQAGGSLRFSCAASGSIFDYNAMGWYRQAPGTERELVAAITYSGGTTYADSVKGRFTISRDNAKNTVYLQMNSLKPEDTAVDYCAATSYDRFAYYYWGQGTQVTVSS”, the “polyreactivity (PSR sort gate)” value is on record as “low polyreactivity”.
In the case of “QVQLEESGGGLVQAGGSLRFSCAASGSTFLHYAMGWYRPAPGQERALVAAITWSGGSTYYADSVKGRFTISRDNAKNTVSLQMNSLKPEDTAVYYCAADLTYLYDYHYDYWGQGTQVTVSS”, the “polyreactivity (PSR sort gate)” value is “low polyreactivity”.
Under “QVQLEESGGGLVQAGGSLRISCAASGRIFRKYTMGWYRQAPGKERELVAAITGTGGSTYYADSVKGRFTISRDNAKNTVYLQMNSLKPVVTAVYYCAADYSARYGYWGQGTQVTVSS” stands “high polyreactivity”; under “QVQLEESGGGLVQAGGSLRISSAASGSTLGSNAMGWYRQAPGKEMELVAAITWSGGTTYYADSVKGRFTIARDNPKNTVSLQMNSLKPEDTAVYYCATGQSVIYRYEYWGQGTQVTVSS”, “low polyreactivity”.
Under “QVQLEESGGGLVQAGGSLRLICAASGGIFQKYAMGWYRQAPGKERELVASNNTGVRTYYADSVKGRFTISRDNAKNTVYLQMNSLKPEDTAVYYCNADGGGPRKYTRTRGHWGQGTQVTVSS” stands “low polyreactivity”; under “QVQLEESGGGLVQAGGSLRLICAASGSIFDSNSMGWYRQAPGKVRELVAGISRGGGSTYYADSVKGRFTISRDNAKNTVYLQMNSLKPEDTAVYYCNVLTYRWLYARRYEYWGQGTQVTVSS”, “high polyreactivity”.
For “QVQLEESGGGLVQAGGSLRLICAATGSIFSFYAMGWYRQAPGKEREWVAAIDVSGGSTYYADSVKGRFTISRDNAKNTVYLQMNSLKPEDTAVYYCAKDVRDQYDYWGQGTQVTVSS” the value was “low polyreactivity”; for “QVQLEESGGGLVQAGGSLRLSCAAAGINFTYYAMGWYRQAPGKERELVAAISYRGGSTYADSVKGRFTISRDNAKNTVYLPMNSLKPEDTAVYYFAADSPVPDSGEGYWGQGTQVTVSS”, “high polyreactivity”; for “QVQLEESGGGLVQAGGSLRLSCAASGFIFFAYAMGWYRQAPGKERELVAAISRTGGSTYYADSVKGRFTISRDNAKNTVYLLMNSLKPEDTAVYYCAAVVSRTYQWWTYDYWGQGTQVTVSS”, “high polyreactivity”.
On to “QVQLEESGGGLVQAGGSLRLSCAASGFIFFKYAMGWYRQAPGKEREFVAAISKSGTSTYYADSVKGRFTISRDNAKNTVYLQMNSLKPEDTAVYYCAKRYLTRYKGYYYWGQGTQVTVSS”, for which the “polyreactivity (PSR sort gate)” value was “high polyreactivity”.
For “QVQLEESGGGLVQAGGSLRLSCAASGFIFGYYGMGWYRQAPGKERELVAAITDGGSTTYADSVKGRFTISRDNAKNTVYLQMNSLKPEDTAVYYCNAEAGGFDYYGKTYRYGDYWGQGTQVTVSS” the value was “low polyreactivity”.
